Assay results taken from US20180021429A1, “ANTICANCER AGENTS OR ANTIMETASTATIC AGENTS USING FSTL1 AND COMBINATION DRUG THEREOF” (PHARMA FOODS INTERNATIONAL CO., LTD., priority 2015, published 2018).

Columns and labels:
[1] = system: mouse lymphoma EL4; assay: In vivo lymphoma model (Example 23); conditions: intraperitoneal 10 mg/kg on days 3 and 6; vs control antibody
Method: The drug efficacy of the anti-FSTL1 antibody was evaluated according to Examples 17 to 20 using mouse lymphoma EL4, which is a cancer type having enhanced FSTL1 expression.
1. Experiment Group (n=5) • 1. Mouse lymphoma EL4+control IgG (anti-DNP mAb) • 2. Mouse lymphoma EL4+anti-FSTL1 mAb (#6-55)
• Day 0: transplantation of tumor cells (1×10^6 cells subcutaneously & 1×10^6 cells intravenously) • Day 3: intraperitoneal administration of the antibody (first dose, corresponding to 200 μg/mouse=10 mg/kg) • Day 6: intraperitoneal administration of the antibody (second dose, corresponding to 200 μg/mouse=10 mg/kg) • Day 15: various immunological assays
• Effects on the growth of subcutaneous tumor (calculation of tumor volume by tumor size measurement): measured 3, 6, and 10 days after tumor implantation

[2] = system: mouse colorectal cancer CT26 cells; assay: Mouse colorectal cancer CT26 cell-transplanted model (Example 20); format: in vivo
Method: (§1) Procedures and methods of the experiment were basically performed under substantially the same conditions as in the bone metastasis model experiments of Examples 17 to 19 except that bone metastasis was not evaluated. Specifically, drug efficacy evaluation was conducted using mouse tumor models other than Snail-positive tumor bone metastasis models. The drug efficacy of the anti-FSTL1 antibody was evaluated using cancer-bearing models of BALB/c mice different in strain from the C57BL/6 mice used in the preceding tests. The test was conducted by changing only the amount of tumor implanted, antibody administration timing, and assay timing. • Day 0: transplantation of tumor cells (5×10^5 cells subcutaneously & 5×10^5 cells intravenously) Days 4 and 7: intraperitoneal administration of the antibody (10 mg/kg) • Day 14: drug efficacy evaluation (subcutaneous tumor growth (FIG. 108A) and lung metastasis (FIG. 108B)) For lung metastasis, the number of metastatic nodules in the lung was macroscopically counted. The tumor volumes of the mice were measured 7, 11, and 14 days after tumor implantation.

[3] = system: mouse colorectal cancer CT26 cells; assay: In vivo, mouse colorectal cancer CT26 cell-transplanted model (Example 20); conditions: intraperitoneal 10 mg/kg on days 4 and 7
Method: as §1, with “44A)” for “108A)”, “44B))” for “108B)) For lung metastasis, the number of metastatic nodules in the lung was macroscopically counted. The tumor volumes of the mice were measured 7, 11, and 14 days after tumor implantation.”
For lung metastasis, the number of metastatic nodules in the lung was macroscopically counted. The tumor volumes of the mice were measured 7, 11, and 14 days after tumor implantation.
as §1, with “intravenously) •” for “intravenously)”, “76A)” for “108A)”, “76B))” for “108B)) For lung metastasis, the number of metastatic nodules in the lung was macroscopically counted. The tumor volumes of the mice were measured 7, 11, and 14 days after tumor implantation.”

[4] = system: mouse breast cancer 4T1 cells; assay: In vivo, mouse breast cancer 4T1 cell-transplanted model (Example 21); conditions: BALB/c mice; intraperitoneal 10 mg/kg on days 4 and 7
Method: Procedures and methods of the experiment were basically performed according to Examples 17 to 20 under substantially the same conditions as in the bone metastasis model experiments of Examples 17 to 20. Drug efficacy evaluation was conducted using mouse tumor models other than Snail-positive tumor bone metastasis models. The drug efficacy of the anti-FSTL1 antibody was evaluated using cancer-bearing models of BALB/c mice different in strain from the C57BL/6 mice used in the preceding tests. Changes were made as follows. • Day 0: transplantation of tumor cells (5×10^5 cells subcutaneously & 5×10^5 cells intravenously) Days 4 and 7: intraperitoneal administration of the antibody (10 mg/kg) • Day 14: drug efficacy evaluation (subcutaneous tumor growth)
The tumor volumes of the mice were measured 4, 7, 11, and 14 days after tumor implantation.

[5] = system: human pancreatic cancer cell line Panc1; assay: Action on Panc1 under FSTL1 stimulation (Example 26); format: cell-based; conditions: Panc1 stimulated with FSTL1 for 3 days, antibody 5 μg/ml; FIG. 114B
Excerpt: Specifically, the influence of the anti-FSTL1 antibody on proliferative capacity and invasive capacity was studied using various human tumor cells, regardless of the presence or absence of the expression of Snail or FSTL1. […] After culture for 3 days, the number of cells per culture system was counted to evaluate the proliferative capacity of the cells. […] Then, the number of cells that permeated the membranes was counted under a microscope to evaluate the invasive capacity of the cells.
Next, in order to examine how surrounding tumor cells were changed in a cancer microenvironment by receiving FSTL1 produced by Snail/FSTL1-expressing cells, and how the anti-FSTL1 antibody acts thereon, a human pancreatic cancer cell line Panc1 confirmed to express Snail or FSTL1 only slightly was stimulated with FSTL1 for 3 days. The anti-FSTL1 antibody (#6-55, 5 μg/ml) or a control antibody (aHema, 5 μg/ml) was added to this culture system, and subsequent change in cell function was analyzed in the same way as in the preceding paragraph. […]

B1: #6-55: chicken-mouse chimeric anti-FSTL1 antibody clone; variable regions SEQ ID NO: 783 (light), 785 (heavy) (antibody, V domains shown)
VH: AVTLDESGGGLQTPGGALSLVCKGSGFTFTSVTMQWVRQAPGKGLEWVASVCSGSSTYYAPAVKGRATISRDNGQSTVRLQLSNLRPEDTGTYYCAKIAGRARWSCTSAAYNIDAWGHGTEVIVSS
VL: ASTQPSSVSAIPGETVKITCSGGGNNYGWYQQRSPGSAPVTVIYYNDNRPSNIPSRFSGSTSGSTSTLTITGVQADDEAIYYCGSWDSNTDSGIFGAGTTLTVL
modifications: mouse constant regions
In the case of B1, the subcutaneous tumor growth [1] is reported as “strongly suppressed”, the “growth and lung metastasis of CT26 subcutaneous tumor” value ([2]; BALB/c mice, intraperitoneal 10 mg/kg on days 4 and 7, day 14, FIG. 108) is reported as “very strongly suppressed” and the “number of metastatic nodules in the lung” value ([2]; day 14, control antibody group 14 nodules on average, FIG. 108B) is reported as 0 to 3 nodules. For the same molecule, the “disappearance of solid tumor (mice)” value ([2]; n=5, intraperitoneal 10 mg/kg on days 4 and 7) was “three out of the five mice”, the “growth of CT26 subcutaneous tumor” value ([3]; BALB/c mice) was “very strongly suppressed” and the “lung metastasis of CT26 tumor” value ([3]; BALB/c mice, day 14) was “very strongly suppressed”. For the same molecule, the “mice in which solid tumor disappeared” value ([3]; n=5) was “three out of the five mice”, the “growth of 4T1 subcutaneous tumor” value [4] was “significantly suppressed” and the cell growth [5] was “reduced”. The “enhancement of invasive capacity by FSTL1” value [5] was “canceled”.
